Experimental data from publication PMC9838217, “Structure of SALL4 zinc finger domain reveals link between AT-rich DNA binding and Okihiro syndrome”.
Substitutions are numbered along the chain they refer to.

Key:
Settings in all cases: protein: recombinant; tags: His6-GST removed with 3C protease; label: DY681
SALL4 ZFC4 I897S+V925S = target: T1, SALL4 ZFC4 I897S+V925S (Mus musculus, UniProt Q8BX22 870-940, I897S;V925S); experiment: EMSA; apparent; text gives 5.0; poly(dI-dC); EMSA: 68.1 nM DY681-dsDNA, 20 mM HEPES pH 7.5, 150 mM K acetate, 5 mM Mg acetate, 10 ng/ul poly(dI-dC), 30 min on ice; 4% native PAGE, 0.5x TBE, 4 C
T1 sequence: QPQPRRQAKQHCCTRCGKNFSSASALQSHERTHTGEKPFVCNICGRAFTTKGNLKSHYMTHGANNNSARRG

SALL4 ZFC4 R900W = target: T2, SALL4 ZFC4 R900W (Mus musculus, UniProt Q8BX22 870-940, R900W); experiment: EMSA; apparent; poly(dI-dC); EMSA: 68.1 nM DY681-dsDNA, 20 mM HEPES pH 7.5, 150 mM K acetate, 5 mM Mg acetate, 10 ng/ul poly(dI-dC), 30 min on ice; 4% native PAGE, 0.5x TBE, 4 C
T2 sequence: T1 sequence with S28I, R31W, S56V

SALL4 ZFC4 I897S = target: T3, SALL4 ZFC4 I897S (Mus musculus, UniProt Q8BX22 870-940, I897S); experiment: as above
T3 sequence: T1 sequence with S56V

SALL4 ZFC4 V925S = target: T4, SALL4 ZFC4 V925S (Mus musculus, UniProt Q8BX22 870-940, V925S); experiment: as above
T4 sequence: T1 sequence with S28I

B1: EMSA AT-rich probe (dsDNA)
DNA 1: AAAAAATATTAAAAA
DNA 2: TTTTTAATATTTTTT
Kd (SALL4 ZFC4 I897S+V925S): 5.08 µM | Kd (SALL4 ZFC4 R900W): 23 µM | Kd (SALL4 ZFC4 I897S): 4.8 µM | Kd (SALL4 ZFC4 V925S): 0.91 µM
